Consider 22 molecules from US20250186597A1 (BRIGHT PEAK THERAPEUTICS, published 2025).

“And” between values parts separate entries of the source, which are not always exact repeats. Equal entries are not always repeated.

This assay concerns the target T1, IL-18R on HEK-Blue IL18R reporter cells (InvivoGen, #hkb-hmi118) (UniProt Q13478 19-541; O95256 20-599, limits assumed).
T1 sequence (looked up) 1: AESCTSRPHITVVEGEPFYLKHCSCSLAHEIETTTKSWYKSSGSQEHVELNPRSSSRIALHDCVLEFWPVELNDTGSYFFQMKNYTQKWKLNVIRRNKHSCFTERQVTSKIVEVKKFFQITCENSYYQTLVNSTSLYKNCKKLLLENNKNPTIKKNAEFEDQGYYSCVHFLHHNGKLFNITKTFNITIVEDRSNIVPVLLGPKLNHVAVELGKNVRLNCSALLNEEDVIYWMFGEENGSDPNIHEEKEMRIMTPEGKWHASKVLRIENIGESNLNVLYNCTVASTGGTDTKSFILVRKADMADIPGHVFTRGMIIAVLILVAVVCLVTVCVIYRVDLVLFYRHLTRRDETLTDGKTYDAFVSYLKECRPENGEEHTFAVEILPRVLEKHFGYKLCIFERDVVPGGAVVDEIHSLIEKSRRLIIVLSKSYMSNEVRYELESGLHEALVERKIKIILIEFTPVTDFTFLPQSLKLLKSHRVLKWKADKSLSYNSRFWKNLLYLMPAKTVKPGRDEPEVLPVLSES
T1 sequence (looked up) 2: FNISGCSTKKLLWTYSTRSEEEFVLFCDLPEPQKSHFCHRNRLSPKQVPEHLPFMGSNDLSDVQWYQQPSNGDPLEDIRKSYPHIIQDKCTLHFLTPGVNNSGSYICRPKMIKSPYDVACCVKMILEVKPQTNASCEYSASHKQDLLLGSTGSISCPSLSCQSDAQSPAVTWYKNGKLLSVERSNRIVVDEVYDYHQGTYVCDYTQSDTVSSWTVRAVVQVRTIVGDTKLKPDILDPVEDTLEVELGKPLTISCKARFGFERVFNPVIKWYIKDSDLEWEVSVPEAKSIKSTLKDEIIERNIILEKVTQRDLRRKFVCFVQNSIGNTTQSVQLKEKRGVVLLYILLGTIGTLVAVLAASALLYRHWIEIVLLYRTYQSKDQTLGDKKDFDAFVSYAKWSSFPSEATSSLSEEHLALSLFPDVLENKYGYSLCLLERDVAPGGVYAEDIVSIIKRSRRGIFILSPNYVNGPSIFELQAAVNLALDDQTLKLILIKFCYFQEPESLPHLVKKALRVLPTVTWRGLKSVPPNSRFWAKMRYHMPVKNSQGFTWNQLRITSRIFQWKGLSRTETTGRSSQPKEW
Put plainly: cell-based or functional assay.

B1: IL-18 polypeptide of SEQ ID NO: 34 (E06K, K53A, S55A) (ligand)
chain: YFGKLKSKLSVIRNLNDQVLFIDQGNRPLFEDMTDSDCRDNAPRTIFIISMYADAQPRGMAVTISVKCEKISTLSCENKIISFKEMNPPDNIKDTKSDIIFFQRSVPGHDNKMQFESSSYEGYFLACEKERDLFKLILKKEDELGDRSIMFTVQNED
As to B1, the “EC50, HEK-Blue IL18R reporter assay” value was found to be 272 pM.

B2: IL-18 polypeptide C155 (V11I, C38A, D40A, K53A, C76A, C127A) (ligand)
chain: YFGKLESKLSIIRNLNDQVLFIDQGNRPLFEDMTDSDARANAPRTIFIISMYADSQPRGMAVTISVKCEKISTLSAENKIISFKEMNPPDNIKDTKSDIIFFQRSVPGHDNKMQFESSSYEGYFLAAEKERDLFKLILKKEDELGDRSIMFTVQNED
On to B2, for which the “EC50, HEK-Blue IL18R reporter assay” value is 0.52 pM.

B3: IL-18 polypeptide C146 (SEQ ID NO: 68; V11I, C38A, M51G, K53A, C76A, C127A) (ligand)
chain: YFGKLESKLSIIRNLNDQVLFIDQGNRPLFEDMTDSDARDNAPRTIFIISGYADSQPRGMAVTISVKCEKISTLSAENKIISFKEMNPPDNIKDTKSDIIFFQRSVPGHDNKMQFESSSYEGYFLAAEKERDLFKLILKKEDELGDRSIMFTVQNED
Take B3: the “EC50, HEK-Blue IL18R reporter assay” value was determined as 0.8 pM.

B4: IL-18 polypeptide of SEQ ID NO: 59 (E6K, C38A, K53A) (ligand)
chain: YFGKLKSKLSVIRNLNDQVLFIDQGNRPLFEDMTDSDARDNAPRTIFIISMYADSQPRGMAVTISVKCEKISTLSCENKIISFKEMNPPDNIKDTKSDIIFFQRSVPGHDNKMQFESSSYEGYFLACEKERDLFKLILKKEDELGDRSIMFTVQNED
On to B4, for which the “EC50, HEK-Blue IL18R reporter assay” value came to 0.268 pM.

B5: IL-18 polypeptide of SEQ ID NO: 60 (E6K, C38Q, K53A) (ligand)
chain: YFGKLKSKLSVIRNLNDQVLFIDQGNRPLFEDMTDSDQRDNAPRTIFIISMYADSQPRGMAVTISVKCEKISTLSCENKIISFKEMNPPDNIKDTKSDIIFFQRSVPGHDNKMQFESSSYEGYFLACEKERDLFKLILKKEDELGDRSIMFTVQNED
Consider B5, for which the “EC50, HEK-Blue IL18R reporter assay” value is 0.203 pM.

B6: IL-18 polypeptide C144 (V11I, C38A, K53A, T63A, C76A, C127A) (ligand)
chain: YFGKLESKLSIIRNLNDQVLFIDQGNRPLFEDMTDSDARDNAPRTIFIISMYADSQPRGMAVAISVKCEKISTLSAENKIISFKEMNPPDNIKDTKSDIIFFQRSVPGHDNKMQFESSSYEGYFLAAEKERDLFKLILKKEDELGDRSIMFTVQNED
For B6, the “EC50, HEK-Blue IL18R reporter assay” value was 0.17 pM.

B7: IL-18 polypeptide C150 (V11I, T34A, C38A, K53A, C76A, C127A) (ligand)
chain: YFGKLESKLSIIRNLNDQVLFIDQGNRPLFEDMADSDARDNAPRTIFIISMYADSQPRGMAVTISVKCEKISTLSAENKIISFKEMNPPDNIKDTKSDIIFFQRSVPGHDNKMQFESSSYEGYFLAAEKERDLFKLILKKEDELGDRSIMFTVQNED
As to B7, the “EC50, HEK-Blue IL18R reporter assay” value stood at 0.7 pM.

B8: IL-18 polypeptide C149 (V11I, E31A, C38A, K53A, C76A, C127A) (ligand)
chain: YFGKLESKLSIIRNLNDQVLFIDQGNRPLFADMTDSDARDNAPRTIFIISMYADSQPRGMAVTISVKCEKISTLSAENKIISFKEMNPPDNIKDTKSDIIFFQRSVPGHDNKMQFESSSYEGYFLAAEKERDLFKLILKKEDELGDRSIMFTVQNED
B8: the “EC50, HEK-Blue IL18R reporter assay” value amounted to 6.6 pM.

B9: IL-18 polypeptide of SEQ ID NO: 56 (E6K, K53A, C38S, C76S, C127S) (ligand)
chain: YFGKLKSKLSVIRNLNDQVLFIDQGNRPLFEDMTDSDSRDNAPRTIFIISMYADSQPRGMAVTISVKCEKISTLSSENKIISFKEMNPPDNIKDTKSDIIFFQRSVPGHDNKMQFESSSYEGYFLASEKERDLFKLILKKEDELGDRSIMFTVQNED
B9: the “EC50, HEK-Blue IL18R reporter assay” value is 3.73 pM.

B10: IL-18 polypeptide C153 (V11I, D37A, C38A, K53A, C76A, C127A) (ligand)
chain: YFGKLESKLSIIRNLNDQVLFIDQGNRPLFEDMTDSAARDNAPRTIFIISMYADSQPRGMAVTISVKCEKISTLSAENKIISFKEMNPPDNIKDTKSDIIFFQRSVPGHDNKMQFESSSYEGYFLAAEKERDLFKLILKKEDELGDRSIMFTVQNED
With B10, the “EC50, HEK-Blue IL18R reporter assay” value amounted to 14.1 pM.

B11: IL-18 polypeptide C154 (V11I, E31A, D37A, C38A, K53A, C76A, C127A) (ligand)
chain: YFGKLESKLSIIRNLNDQVLFIDQGNRPLFADMTDSAARDNAPRTIFIISMYADSQPRGMAVTISVKCEKISTLSAENKIISFKEMNPPDNIKDTKSDIIFFQRSVPGHDNKMQFESSSYEGYFLAAEKERDLFKLILKKEDELGDRSIMFTVQNED
With B11, the “EC50, HEK-Blue IL18R reporter assay” value is 11.9 pM.

B12: IL-18 polypeptide C143 (V11I, C38A, K53A, C76A, C127A) (ligand)
chain: YFGKLESKLSIIRNLNDQVLFIDQGNRPLFEDMTDSDARDNAPRTIFIISMYADSQPRGMAVTISVKCEKISTLSAENKIISFKEMNPPDNIKDTKSDIIFFQRSVPGHDNKMQFESSSYEGYFLAAEKERDLFKLILKKEDELGDRSIMFTVQNED
For the molecule B12, the “EC50, HEK-Blue IL18R reporter assay” value is 0.98 pM.

B13: IL-18 polypeptide of SEQ ID NO: 42 (E06K, K53A, S55A, T63A) (ligand)
chain: YFGKLKSKLSVIRNLNDQVLFIDQGNRPLFEDMTDSDCRDNAPRTIFIISMYADAQPRGMAVAISVKCEKISTLSCENKIISFKEMNPPDNIKDTKSDIIFFQRSVPGHDNKMQFESSSYEGYFLACEKERDLFKLILKKEDELGDRSIMFTVQNED
In the case of B13, the “EC50, HEK-Blue IL18R reporter assay” value turned out to be 0.79 pM.

B14: IL-18 polypeptide of SEQ ID NO: 57 (E6K, C38S, K53A) (ligand)
chain: YFGKLKSKLSVIRNLNDQVLFIDQGNRPLFEDMTDSDSRDNAPRTIFIISMYADSQPRGMAVTISVKCEKISTLSCENKIISFKEMNPPDNIKDTKSDIIFFQRSVPGHDNKMQFESSSYEGYFLACEKERDLFKLILKKEDELGDRSIMFTVQNED
As for B14, the “EC50, HEK-Blue IL18R reporter assay” value was 0.86 pM and 0.53 pM.

B15: IL-18 polypeptide C152 (V11I, S36A, C38A, K53A, C76A, C127A) (ligand)
chain: YFGKLESKLSIIRNLNDQVLFIDQGNRPLFEDMTDADARDNAPRTIFIISMYADSQPRGMAVTISVKCEKISTLSAENKIISFKEMNPPDNIKDTKSDIIFFQRSVPGHDNKMQFESSSYEGYFLAAEKERDLFKLILKKEDELGDRSIMFTVQNED
With B15, the “EC50, HEK-Blue IL18R reporter assay” value was found to be 0.25 pM.

B16: IL-18 polypeptide C147 (V11I, C38A, K53A, D54A, C76A, C127A) (ligand)
chain: YFGKLESKLSIIRNLNDQVLFIDQGNRPLFEDMTDSDARDNAPRTIFIISMYAASQPRGMAVTISVKCEKISTLSAENKIISFKEMNPPDNIKDTKSDIIFFQRSVPGHDNKMQFESSSYEGYFLAAEKERDLFKLILKKEDELGDRSIMFTVQNED
Regarding B16, the “EC50, HEK-Blue IL18R reporter assay” value was determined as 1 pM.

B17: IL-18 polypeptide C148 (F2A, V11I, C38A, K53A, C76A, C127A) (ligand)
chain: YAGKLESKLSIIRNLNDQVLFIDQGNRPLFEDMTDSDARDNAPRTIFIISMYADSQPRGMAVTISVKCEKISTLSAENKIISFKEMNPPDNIKDTKSDIIFFQRSVPGHDNKMQFESSSYEGYFLAAEKERDLFKLILKKEDELGDRSIMFTVQNED
As for B17, the “EC50, HEK-Blue IL18R reporter assay” value came to 7.28 pM.

B18: IL-18 polypeptide of SEQ ID NO: 62 (E6K, C38A, K53A, C127A) (ligand)
chain: YFGKLKSKLSVIRNLNDQVLFIDQGNRPLFEDMTDSDARDNAPRTIFIISMYADSQPRGMAVTISVKCEKISTLSCENKIISFKEMNPPDNIKDTKSDIIFFQRSVPGHDNKMQFESSSYEGYFLAAEKERDLFKLILKKEDELGDRSIMFTVQNED
Regarding B18, the “EC50, HEK-Blue IL18R reporter assay” value was 0.17 pM.

B19: IL-18 polypeptide of SEQ ID NO: 54 (E06K, K53A, C38S, C68S, C76S, C127S, K70C) (ligand)
chain: YFGKLKSKLSVIRNLNDQVLFIDQGNRPLFEDMTDSDSRDNAPRTIFIISMYADSQPRGMAVTISVKSECISTLSSENKIISFKEMNPPDNIKDTKSDIIFFQRSVPGHDNKMQFESSSYEGYFLASEKERDLFKLILKKEDELGDRSIMFTVQNED
For B19, the “EC50, HEK-Blue IL18R reporter assay” value amounted to 9.12 pM.

B20: IL-18 polypeptide of SEQ ID NO: 50 (E06K, K53A, T63A) (ligand)
chain: YFGKLKSKLSVIRNLNDQVLFIDQGNRPLFEDMTDSDCRDNAPRTIFIISMYADSQPRGMAVAISVKCEKISTLSCENKIISFKEMNPPDNIKDTKSDIIFFQRSVPGHDNKMQFESSSYEGYFLACEKERDLFKLILKKEDELGDRSIMFTVQNED
Consider B20, for which the “EC50, HEK-Blue IL18R reporter assay” value stood at 1.77 pM.

B21: IL-18 polypeptide C145 (V11I, C38A, K53A, S55A, C76A, C127A) (ligand)
chain: YFGKLESKLSIIRNLNDQVLFIDQGNRPLFEDMTDSDARDNAPRTIFIISMYADAQPRGMAVTISVKCEKISTLSAENKIISFKEMNPPDNIKDTKSDIIFFQRSVPGHDNKMQFESSSYEGYFLAAEKERDLFKLILKKEDELGDRSIMFTVQNED
For B21, the “EC50, HEK-Blue IL18R reporter assay” value was found to be 3.63 pM.

B22: IL-18 polypeptide C151 (V11I, D35A, C38A, K53A, C76A, C127A) (ligand)
chain: YFGKLESKLSIIRNLNDQVLFIDQGNRPLFEDMTASDARDNAPRTIFIISMYADSQPRGMAVTISVKCEKISTLSAENKIISFKEMNPPDNIKDTKSDIIFFQRSVPGHDNKMQFESSSYEGYFLAAEKERDLFKLILKKEDELGDRSIMFTVQNED
Consider B22, for which the “EC50, HEK-Blue IL18R reporter assay” value is 13.1 pM.
